B1: Flag-tagged full-length PA1 (recombinant) (natural protein, UniProt Q99L02 1-253, looked up)
chain: MSLALGHGTIAGSTAAPLSEEGEVTSGLQALAVEDTGGPSVSASKAEEEGKGSQEEAGREGSRPEEALEAPSAASDERAEGEAEDWCVPCSDEEVELPANGQSWMPPPSEIQRLYELLATQGTLELQAEILPRRPPTPEAQSEEERSDEEPEAKEEEEEKPHMPTEFDFDDEPMTPKDSLIDRRRTPGSSARSQKREARLDKVLSDMKRHKKLEEQILRTGRDLFSLDSEGPSPTSPPLRSSGNSLFPRQRKY
B2: Strep-tagged N-terminal BRCT1–2 domain fragment of PTIP (recombinant) (domain or fragment)
chain: VPEELFREVKYYAVGDIDPQVIQLLKAGKAKEVSYNALASHIISEDGDNPEVGEAREVFDLPVVKPSWVTLSVQCGALLPVNGFSPESCQIFFGLTACLSQVSSEDRSALWALVTFHGGSCQLNLNKKCTHLIVPEPKGEKYERAVKRTSIKIVTPDWVLDCVSEKRRKDEAFYHP

How the values were obtained:
[1] = target: B2; test: ITC
[2] = target: B1; test: ITC

dH [1] | stoichiometry N [1] | Kd [2] | Binder
-26 kcal/mol | 1 | – | B1
– | – | 7.1 nM | B2

— PMC4719306 (Genes & Development, 2016)
